Usually Km stands for the substrate concentration at which the rate is half of its maximum.

Our source for the Km and kcat values is patent US5766896A, “Method of producing iodine by use of a copper containing oxidase enzyme” (Novo Nordisk Biotech Inc., priority 1994, dated 1998).

Substrate in data set [1]: CCn1c(=NN=c2sc3cc(S(=O)(=O)O)ccc3n2CC)sc2cc(S(=O)(=O)O)ccc21
The experiment in a line: purified protein, by the assay type.

Substrate in data set [2]: COc1cc(C=NN=Cc2cc(OC)c(O)c(OC)c2)cc(OC)c1O
The experiment in a line: r-MtL syringaldazine oxidation. It is filed as biochemical, Myceliophthora thermophila. Particulars: other: optimal pH (7); 30.0 °C.

Setting [3] is: other: optimal pH of 4.1, pH 4.1, 30.0 °C.
[4] abbreviates: other: from dependence of I^- oxidation rates on ABTS concentration, 20.0 °C.

B1: ceruloplasmin (porcine plasma) (Sus scrofa) (protein)
chain: KDKHYYIGIVETTWDYASDRGEKKLISVDKEQSNIYLQNGPNRIGRLYKKAIYLQYTDETFRTIIEKPVWLGFLGPIIKAETGDRVYVHFKNFASRPYTFHAHGMTYYKEHEGAIYPDNTTDFQKADDKVHPGEQYTYILHANPEQGPGKEDSNCVTRIYHSHIDAPKDIASGLIGPLIHCRKDSLDKEKEKNIDQEFVVMFSVVDENLSWYLEDNIKTYCSEPEKVEPDNEDFKESNRMYSVNGYSFGSLPGLSMCAEDRVKWYLFGMGNEIDVHAAFFHGQVLTNKNYRIDTINLFPATLFDAFMVAQNPGEWMLSCQNLNHLKAGLQAFFRVQDCKKTSSEDAIHGKHVRHYYIAAEEIIWNYAPSGIDTFTKENLTAPGSASEVFFTRGSTRIGGSYKKLVYREYKDASFTNRKERGPEEEHLGILGPVIWAEVGDTIRVTFRNKGAYPLSIEPTGVRVSKSQEGTYYASHYISSSENVPPSASHVAPKETFTYEWTVPKEVGPTYKDPVCLTKMYYSAVDPTKDIFTGLIGPMKICKKGSLLANGRLKDVDKEFYLFPTVFDENESLLLDDNIQMFTTEPNKVDKENEDFQESNKMHSMNGFMYGNQPGLNMCQGDSVVWYLFSAGNEVDVHGIYFSGNTYLSRGERRDTANLFPQTSLRLFMQPDTAGTFDVECLTTDHYTGGMKQKYTVNQCKQLNENSYLYLGERTYYIAAVEVEWDYSPSREWEKELHHSQERNVSNAFLDKGEFYIGSKYKKVVYRQFTDSTFQVPVQRKAKEEHLGILGPQLHADVGDKVNIVFKNTATRPYSIHAHGVKTESPTVIPTVPGETRTYVWKIPERSGAGIDDSPCIPWVYYSTVDQVKDLYSGLIGPLIVCRKPYLKVFNPIKNLEFSLLFLVFDENESWYLDDNIKTYSDHPEKVDKANDEFIESNKMHAINGRMFGNLQGLTMHVGDEVNWYLMGMGNEIDLHTVHFHGHSFQYQHRGIYTSDVFDIFPGTYQTLEMFPKTSGTWLLHCHVTDHIHAGMETTYTVLPNEETKSG
As to B1, in data set [1] (other: pH 4.1, pH 4.1, 30.0 °C), the Km is 110 ± 40 µM and the kcat came to 9.3±1.3 turnover per minute.

B2: bilirubin oxidase (Myrothecium verrucaria) (Albifimbria verrucaria) (protein)
chain: VAQISPQYPMFTVPLPIPPVKQPRLTVTNPVNGQEIWYYEVEIKPFTHQVYPDLGSADLVGYDGMSPGPTFQVPRGVETVVRFINNAEAPNSVHLHGSFSRAAFDGWAEDITEPGSFKDYYYPNRQSARTLWYHDHAMHITAENAYRGQAGLYMLTDPAEDALNLPSGYGEFDIPMILTSKQYTANGNLVTTNGELNSFWGDVIHVNGQPWPFKNVEPRKYRFRFLDAAVSRSFGLYFADTDAIDTRLPFKVIASDSGLLEHPADTSLLYISMAERYEVVFDFSDYAGKTIELRNLGGSIGGIGTDTDYDNTDKVMRFVVADDTTQPDTSVVPANLRDVPFPSPTTNTPRQFRFGRTGPTWTINGVAFADVQNRLLANVPVGTVERWELINAGNGWTHPIHIHLVDFKVISRTSGNNARTVMPYESGLKDVVWLGRRETVVVEAHYAPFPGVYMFHCHNLIHEDHDMMAAFNATVLPDYGYNATVFVDPMEELWQARPYELGEFQAQSGQFSVQAVTERIQTMAEYRPYAAADE
B2: in data set [1] (setting [3]), the Km came out at 120 ± 10 µM and the kcat is recorded as 1310±40 turnover per minute.

B3: recombinant Myceliophthora thermophila laccase (r-MtL) (Thermothelomyces thermophilus ATCC 42464) (protein)
chain: QQSCNTPSNRACWTDGYDINTDYEVDSPDTGVVRPYTLTLTEVDNWTGPDGVVKEKVMLVNRPTIFADWGDTIQVTVINNLETNGTSIHWHGLHQKGTNLHDGANGITECPIPPKGGRKVYRFKAQQYGTSWYHSHFSAQYGNGVVGAIQINGPASLPYDTDLGVFPISDYYYSSADELVELTKNSGAPFSDNVLFNGTAKHPETGEGEYANVTLTPGRRHRLRLINTSVENHFQVSLVNHTMTIIAADMVPVNAMTVDSLFLGVGQRYDVVIEASRTPGNYWFNVTFGGGLLCGGSRNPYPAAIFHYAGAPGGPPTDEGKAPVDHNCLDLPNLKPVVARDVPLSGFAKRPDNTLDVTLDTTGTPLFVWKVNGSAINIDWGRPVVDYVLTQNTSFPPGYNIVEVNGADQWSYWLIENDPGAPFTLPHPMHLHGHDFYVLGRSPDESPASNERHVFDPARDAGLLSGANPVRRDVTMLPAFGWVVLAFRADNPGAWLFHCHIAWHVSGGLGVVYLERADDLRGAVSDADADDLDRLCADWRHYWPTNPYPKSDSGL
Take B3: the Michaelis-Menten constant (Km) turned out to be 10 µM in data set [2]; 6.4 ± 0.8 µM in data set [1] (setting [4]); 5.6 ± 0.5 µM in data set [1] (other: pH 4.1, pH 4.1). The kcat in data set [2] was 400 turnover per minute; in data set [1] (setting [4]), 860±40 turnover per minute; in data set [1] (other: pH 4.1, pH 4.1) it was 1460±31 turnover per minute.
